Experimental data from patent publication US20220040297A1 (Chugai, published 2022).

Target: T1, CD3ε homodimer protein (human, UniProt P07766 23-126, limits assumed, sulfo-tag or biotin label in some ECL assays)
T1 construct: also called human CD3ε homodimer protein; CD3 (CD3ε)
Assay: SPR, CD3ε homodimer on chip;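 also: biacore SPR with antibody variants flowed as analyte over amine-coupled CD3ε homodimer on a CM chip, bound amount of each single-residue H chain variant over that of parent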
Method: An appropriate amount of CD3ε homodimer protein was immobilized onto Sensor chip CM4 (GE Healthcare Japan Corp.) by the amine coupling method. Then, the antibody having an appropriate concentration was injected thereto as an analyte and allowed to interact with the CD3ε homodimer protein on the sensor chip. Then, the sensor chip was regenerated by the injection of 10 mmol/L glycine-HCl (pH 1.5). The assay was conducted at 25° C., and HBS-EP+ (GE Healthcare Japan Corp.) was used as a running buffer. […] Each parameter was calculated using Biacore T200 Evaluation Software (GE Healthcare Japan Corp.).
Specifically, when the amount of the antibody comprising CE115HA000 bound was defined as X and the amount of the H chain one-amino acid altered form bound was defined as Y, a value of Z (ratio of amounts bound)=Y/X was used.

T1 sequence (P07766 23-126 limits assumed): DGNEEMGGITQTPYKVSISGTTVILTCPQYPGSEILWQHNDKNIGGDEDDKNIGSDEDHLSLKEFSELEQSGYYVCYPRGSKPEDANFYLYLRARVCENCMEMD

| ratio of amounts bound vs CE115HA000 | Binder |
| --- | --- |
| 0.27 | CE115HA000 Q50D (antibody, name in Kabat numbering, V domains shown) VH: QVQLVESGGGVVQPGRSLRLSCAASGFTFSNAWMHWVRQAPGKGLEWVADIKAKSNNYATYYAESVKGRFTISRDDSKNSLYLQMNSLKTEDTAVYYCRYVHYGAYYGVDAWGQGTTVTVSS VL: DIVMTQSPLSLPVTPGEPASISCRSSQSLVHSNRNTYLHWYQQKPGQAPRLLIYKVSNRFSGVPDRFSGSGSGTDFTLKISRVEAEDVGVYYCGQGTQVPYTFGQGTKLEIK |
| 1.2 | CE115HA000 N54K (antibody, name in Kabat numbering, V domains shown) VH: QVQLVESGGGVVQPGRSLRLSCAASGFTFSNAWMHWVRQAPGKGLEWVAQIKAKSNKYATYYAESVKGRFTISRDDSKNSLYLQMNSLKTEDTAVYYCRYVHYGAYYGVDAWGQGTTVTVSS VL: DIVMTQSPLSLPVTPGEPASISCRSSQSLVHSNRNTYLHWYQQKPGQAPRLLIYKVSNRFSGVPDRFSGSGSGTDFTLKISRVEAEDVGVYYCGQGTQVPYTFGQGTKLEIK |
| 0.84 | CE115HA000 N54S (antibody, name in Kabat numbering, V domains shown) VH: QVQLVESGGGVVQPGRSLRLSCAASGFTFSNAWMHWVRQAPGKGLEWVAQIKAKSNSYATYYAESVKGRFTISRDDSKNSLYLQMNSLKTEDTAVYYCRYVHYGAYYGVDAWGQGTTVTVSS VL: DIVMTQSPLSLPVTPGEPASISCRSSQSLVHSNRNTYLHWYQQKPGQAPRLLIYKVSNRFSGVPDRFSGSGSGTDFTLKISRVEAEDVGVYYCGQGTQVPYTFGQGTKLEIK |
| 0.98 | CE115HA000 N54G (antibody, name in Kabat numbering, V domains shown) VH: QVQLVESGGGVVQPGRSLRLSCAASGFTFSNAWMHWVRQAPGKGLEWVAQIKAKSNGYATYYAESVKGRFTISRDDSKNSLYLQMNSLKTEDTAVYYCRYVHYGAYYGVDAWGQGTTVTVSS VL: DIVMTQSPLSLPVTPGEPASISCRSSQSLVHSNRNTYLHWYQQKPGQAPRLLIYKVSNRFSGVPDRFSGSGSGTDFTLKISRVEAEDVGVYYCGQGTQVPYTFGQGTKLEIK |
| 0.24 | CE115HA000 Q50A (antibody, name in Kabat numbering, V domains shown) VH: QVQLVESGGGVVQPGRSLRLSCAASGFTFSNAWMHWVRQAPGKGLEWVAAIKAKSNNYATYYAESVKGRFTISRDDSKNSLYLQMNSLKTEDTAVYYCRYVHYGAYYGVDAWGQGTTVTVSS VL: DIVMTQSPLSLPVTPGEPASISCRSSQSLVHSNRNTYLHWYQQKPGQAPRLLIYKVSNRFSGVPDRFSGSGSGTDFTLKISRVEAEDVGVYYCGQGTQVPYTFGQGTKLEIK |
| 0.94 | CE115HA000 N54L (antibody, name in Kabat numbering, V domains shown) VH: QVQLVESGGGVVQPGRSLRLSCAASGFTFSNAWMHWVRQAPGKGLEWVAQIKAKSNLYATYYAESVKGRFTISRDDSKNSLYLQMNSLKTEDTAVYYCRYVHYGAYYGVDAWGQGTTVTVSS VL: DIVMTQSPLSLPVTPGEPASISCRSSQSLVHSNRNTYLHWYQQKPGQAPRLLIYKVSNRFSGVPDRFSGSGSGTDFTLKISRVEAEDVGVYYCGQGTQVPYTFGQGTKLEIK |
| 0.33 | CE115HA000 Q50K (antibody, name in Kabat numbering, V domains shown) VH: QVQLVESGGGVVQPGRSLRLSCAASGFTFSNAWMHWVRQAPGKGLEWVAKIKAKSNNYATYYAESVKGRFTISRDDSKNSLYLQMNSLKTEDTAVYYCRYVHYGAYYGVDAWGQGTTVTVSS VL: DIVMTQSPLSLPVTPGEPASISCRSSQSLVHSNRNTYLHWYQQKPGQAPRLLIYKVSNRFSGVPDRFSGSGSGTDFTLKISRVEAEDVGVYYCGQGTQVPYTFGQGTKLEIK |
| 0.4 | CE115HA000 Q50I (antibody, name in Kabat numbering, V domains shown) VH: QVQLVESGGGVVQPGRSLRLSCAASGFTFSNAWMHWVRQAPGKGLEWVAIIKAKSNNYATYYAESVKGRFTISRDDSKNSLYLQMNSLKTEDTAVYYCRYVHYGAYYGVDAWGQGTTVTVSS VL: DIVMTQSPLSLPVTPGEPASISCRSSQSLVHSNRNTYLHWYQQKPGQAPRLLIYKVSNRFSGVPDRFSGSGSGTDFTLKISRVEAEDVGVYYCGQGTQVPYTFGQGTKLEIK |
| 0.84 | CE115HA000 N54Q (antibody, name in Kabat numbering, V domains shown) VH: QVQLVESGGGVVQPGRSLRLSCAASGFTFSNAWMHWVRQAPGKGLEWVAQIKAKSNQYATYYAESVKGRFTISRDDSKNSLYLQMNSLKTEDTAVYYCRYVHYGAYYGVDAWGQGTTVTVSS VL: DIVMTQSPLSLPVTPGEPASISCRSSQSLVHSNRNTYLHWYQQKPGQAPRLLIYKVSNRFSGVPDRFSGSGSGTDFTLKISRVEAEDVGVYYCGQGTQVPYTFGQGTKLEIK |
| 0.26 | CE115HA000 Q50E (antibody, name in Kabat numbering, V domains shown) VH: QVQLVESGGGVVQPGRSLRLSCAASGFTFSNAWMHWVRQAPGKGLEWVAEIKAKSNNYATYYAESVKGRFTISRDDSKNSLYLQMNSLKTEDTAVYYCRYVHYGAYYGVDAWGQGTTVTVSS VL: DIVMTQSPLSLPVTPGEPASISCRSSQSLVHSNRNTYLHWYQQKPGQAPRLLIYKVSNRFSGVPDRFSGSGSGTDFTLKISRVEAEDVGVYYCGQGTQVPYTFGQGTKLEIK |

The next lines start with the binder.

| Binder | ratio of amounts bound vs CE115HA000 |
| --- | --- |
| CE115HA000 N53D (antibody, name in Kabat numbering, V domains shown) VH: QVQLVESGGGVVQPGRSLRLSCAASGFTFSNAWMHWVRQAPGKGLEWVAQIKAKSDNYATYYAESVKGRFTISRDDSKNSLYLQMNSLKTEDTAVYYCRYVHYGAYYGVDAWGQGTTVTVSS VL: DIVMTQSPLSLPVTPGEPASISCRSSQSLVHSNRNTYLHWYQQKPGQAPRLLIYKVSNRFSGVPDRFSGSGSGTDFTLKISRVEAEDVGVYYCGQGTQVPYTFGQGTKLEIK | 0.39 |
| CE115HA000 N54D (antibody, name in Kabat numbering, V domains shown) VH: QVQLVESGGGVVQPGRSLRLSCAASGFTFSNAWMHWVRQAPGKGLEWVAQIKAKSNDYATYYAESVKGRFTISRDDSKNSLYLQMNSLKTEDTAVYYCRYVHYGAYYGVDAWGQGTTVTVSS VL: DIVMTQSPLSLPVTPGEPASISCRSSQSLVHSNRNTYLHWYQQKPGQAPRLLIYKVSNRFSGVPDRFSGSGSGTDFTLKISRVEAEDVGVYYCGQGTQVPYTFGQGTKLEIK | 0.62 |
| CE115HA000 N53W (antibody, name in Kabat numbering, V domains shown) VH: QVQLVESGGGVVQPGRSLRLSCAASGFTFSNAWMHWVRQAPGKGLEWVAQIKAKSWNYATYYAESVKGRFTISRDDSKNSLYLQMNSLKTEDTAVYYCRYVHYGAYYGVDAWGQGTTVTVSS VL: DIVMTQSPLSLPVTPGEPASISCRSSQSLVHSNRNTYLHWYQQKPGQAPRLLIYKVSNRFSGVPDRFSGSGSGTDFTLKISRVEAEDVGVYYCGQGTQVPYTFGQGTKLEIK | 0.88 |
| CE115HA000 N54F (antibody, name in Kabat numbering, V domains shown) VH: QVQLVESGGGVVQPGRSLRLSCAASGFTFSNAWMHWVRQAPGKGLEWVAQIKAKSNFYATYYAESVKGRFTISRDDSKNSLYLQMNSLKTEDTAVYYCRYVHYGAYYGVDAWGQGTTVTVSS VL: DIVMTQSPLSLPVTPGEPASISCRSSQSLVHSNRNTYLHWYQQKPGQAPRLLIYKVSNRFSGVPDRFSGSGSGTDFTLKISRVEAEDVGVYYCGQGTQVPYTFGQGTKLEIK | 1.12 |
| CE115HA000 N53Q (antibody, name in Kabat numbering, V domains shown) VH: QVQLVESGGGVVQPGRSLRLSCAASGFTFSNAWMHWVRQAPGKGLEWVAQIKAKSQNYATYYAESVKGRFTISRDDSKNSLYLQMNSLKTEDTAVYYCRYVHYGAYYGVDAWGQGTTVTVSS VL: DIVMTQSPLSLPVTPGEPASISCRSSQSLVHSNRNTYLHWYQQKPGQAPRLLIYKVSNRFSGVPDRFSGSGSGTDFTLKISRVEAEDVGVYYCGQGTQVPYTFGQGTKLEIK | 1.1 |
| CE115HA000 N53G (antibody, name in Kabat numbering, V domains shown) VH: QVQLVESGGGVVQPGRSLRLSCAASGFTFSNAWMHWVRQAPGKGLEWVAQIKAKSGNYATYYAESVKGRFTISRDDSKNSLYLQMNSLKTEDTAVYYCRYVHYGAYYGVDAWGQGTTVTVSS VL: DIVMTQSPLSLPVTPGEPASISCRSSQSLVHSNRNTYLHWYQQKPGQAPRLLIYKVSNRFSGVPDRFSGSGSGTDFTLKISRVEAEDVGVYYCGQGTQVPYTFGQGTKLEIK | 0.5 |
| CE115HA000 N53S (antibody, name in Kabat numbering, V domains shown) VH: QVQLVESGGGVVQPGRSLRLSCAASGFTFSNAWMHWVRQAPGKGLEWVAQIKAKSSNYATYYAESVKGRFTISRDDSKNSLYLQMNSLKTEDTAVYYCRYVHYGAYYGVDAWGQGTTVTVSS VL: DIVMTQSPLSLPVTPGEPASISCRSSQSLVHSNRNTYLHWYQQKPGQAPRLLIYKVSNRFSGVPDRFSGSGSGTDFTLKISRVEAEDVGVYYCGQGTQVPYTFGQGTKLEIK | 0.83 |
| CE115HA000 N53I (antibody, name in Kabat numbering, V domains shown) VH: QVQLVESGGGVVQPGRSLRLSCAASGFTFSNAWMHWVRQAPGKGLEWVAQIKAKSINYATYYAESVKGRFTISRDDSKNSLYLQMNSLKTEDTAVYYCRYVHYGAYYGVDAWGQGTTVTVSS VL: DIVMTQSPLSLPVTPGEPASISCRSSQSLVHSNRNTYLHWYQQKPGQAPRLLIYKVSNRFSGVPDRFSGSGSGTDFTLKISRVEAEDVGVYYCGQGTQVPYTFGQGTKLEIK | 0.68 |
| CE115HA000 N54A (antibody, name in Kabat numbering, V domains shown) VH: QVQLVESGGGVVQPGRSLRLSCAASGFTFSNAWMHWVRQAPGKGLEWVAQIKAKSNAYATYYAESVKGRFTISRDDSKNSLYLQMNSLKTEDTAVYYCRYVHYGAYYGVDAWGQGTTVTVSS VL: DIVMTQSPLSLPVTPGEPASISCRSSQSLVHSNRNTYLHWYQQKPGQAPRLLIYKVSNRFSGVPDRFSGSGSGTDFTLKISRVEAEDVGVYYCGQGTQVPYTFGQGTKLEIK | 0.85 |
| CE115HA000 N53K (antibody, name in Kabat numbering, V domains shown) VH: QVQLVESGGGVVQPGRSLRLSCAASGFTFSNAWMHWVRQAPGKGLEWVAQIKAKSKNYATYYAESVKGRFTISRDDSKNSLYLQMNSLKTEDTAVYYCRYVHYGAYYGVDAWGQGTTVTVSS VL: DIVMTQSPLSLPVTPGEPASISCRSSQSLVHSNRNTYLHWYQQKPGQAPRLLIYKVSNRFSGVPDRFSGSGSGTDFTLKISRVEAEDVGVYYCGQGTQVPYTFGQGTKLEIK | 0.78 |
| CE115HA000 N53H (antibody, name in Kabat numbering, V domains shown) VH: QVQLVESGGGVVQPGRSLRLSCAASGFTFSNAWMHWVRQAPGKGLEWVAQIKAKSHNYATYYAESVKGRFTISRDDSKNSLYLQMNSLKTEDTAVYYCRYVHYGAYYGVDAWGQGTTVTVSS VL: DIVMTQSPLSLPVTPGEPASISCRSSQSLVHSNRNTYLHWYQQKPGQAPRLLIYKVSNRFSGVPDRFSGSGSGTDFTLKISRVEAEDVGVYYCGQGTQVPYTFGQGTKLEIK | 0.76 |
